# PMC5750214
# Experiments:
# [1] = target: β-arrestin-2-RLuc, P32121; experiment: BRET; settings: chain shown with the change, HEK293A cells, read off a plot
# [2] = target: β-arrestin-2-RLuc, P32121; experiment: BRET; settings: chain shown with the change, HEK293A cells, read off a plot; remark: listed apart in the source
# [3] = target: β-arrestin-2-RLuc, P32121; experiment: BRET; settings: chain shown with the change, HEK293A cells, read off a plot; remark: listed apart in the source
# [125I]-Angiotensin II = competitive radioligand binding assay; settings: chain shown with the change, value read from the curve at the x tick, read off a plot
# [4] = Ang II (1 μM), parent: est. 0.672
# [5] = CTL (no stimulation), parent: est. 0.624
# [6] = Hcy (100 μM), parent: est. 0.632
# [7] = no stimulation (open bar, labelled WT in the key), parent: est. 0.624
# Sequence of β-arrestin-2-RLuc, P32121 (P32121 whole entry): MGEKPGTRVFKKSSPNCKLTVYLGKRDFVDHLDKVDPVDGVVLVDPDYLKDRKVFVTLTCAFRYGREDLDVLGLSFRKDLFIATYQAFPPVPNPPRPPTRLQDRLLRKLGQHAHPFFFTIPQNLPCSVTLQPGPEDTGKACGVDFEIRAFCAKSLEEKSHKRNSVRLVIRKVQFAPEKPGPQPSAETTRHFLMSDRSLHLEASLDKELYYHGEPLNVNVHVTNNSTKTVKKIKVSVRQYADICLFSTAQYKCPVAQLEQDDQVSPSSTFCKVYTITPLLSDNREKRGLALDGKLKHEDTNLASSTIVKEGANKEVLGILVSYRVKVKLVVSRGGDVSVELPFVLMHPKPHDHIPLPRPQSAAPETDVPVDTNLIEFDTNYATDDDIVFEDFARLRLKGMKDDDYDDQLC
"response [1, 4]","response [1, 5]","response [2, 5]","response [2, 6]",Binder,other results
0.657 Δ net BRET,0.621 Δ net BRET,0.621 Δ net BRET,0.62 Δ net BRET,"AT1-YFP (wild type), P30556 R167N (protein) MILNSSTEDGIKRIQDDCPKAGRHNYIFVMIPTLYSIIFVVGIFGNSLVVIVIYFYMKLKTVASVFLLNLALADLCFLLTLPLWAVYTAMEYRWPFGNYLCKIASASVSFNLYASVFLLTCLSIDRYLAIVHPMKSRLRRTMLVAKVTCIIIWLLAGLASLPAIIHNNVFFIENTNITVCAFHYESQNSTLPIGLGLTKNILGFLFPFLIILTSYTLIWKALKKAYEIQKNKPRNDDIFKIIMAIVLFFFFSWIPHQIFTFLDVLIQLGIIRDCRIADIVDTAMPITICIAYFNNCLNPLFYGFLGKKFKRYFLQLLKYIPPKAKSHSNLSTKMSTLSYRPSDNVSSSTKKPAPCFEVE",–
–,–,–,–,"AT1-YFP (wild type), P30556 C289S (protein) MILNSSTEDGIKRIQDDCPKAGRHNYIFVMIPTLYSIIFVVGIFGNSLVVIVIYFYMKLKTVASVFLLNLALADLCFLLTLPLWAVYTAMEYRWPFGNYLCKIASASVSFNLYASVFLLTCLSIDRYLAIVHPMKSRLRRTMLVAKVTCIIIWLLAGLASLPAIIHRNVFFIENTNITVCAFHYESQNSTLPIGLGLTKNILGFLFPFLIILTSYTLIWKALKKAYEIQKNKPRNDDIFKIIMAIVLFFFFSWIPHQIFTFLDVLIQLGIIRDCRIADIVDTAMPITISIAYFNNCLNPLFYGFLGKKFKRYFLQLLKYIPPKAKSHSNLSTKMSTLSYRPSDNVSSSTKKPAPCFEVE","response [2, 4]: 0.69 Δ net BRET; response [2, 7]: 0.624 Δ net BRET; response [3, 6]: 0.623 Δ net BRET; response [3, 7]: 0.623 Δ net BRET"
–,–,–,–,"human angiotensin II type 1 (AT1) receptor, P30556 R167A (protein) MILNSSTEDGIKRIQDDCPKAGRHNYIFVMIPTLYSIIFVVGIFGNSLVVIVIYFYMKLKTVASVFLLNLALADLCFLLTLPLWAVYTAMEYRWPFGNYLCKIASASVSFNLYASVFLLTCLSIDRYLAIVHPMKSRLRRTMLVAKVTCIIIWLLAGLASLPAIIHANVFFIENTNITVCAFHYESQNSTLPIGLGLTKNILGFLFPFLIILTSYTLIWKALKKAYEIQKNKPRNDDIFKIIMAIVLFFFFSWIPHQIFTFLDVLIQLGIIRDCRIADIVDTAMPITICIAYFNNCLNPLFYGFLGKKFKRYFLQLLKYIPPKAKSHSNLSTKMSTLSYRPSDNVSSSTKKPAPCFEVE","response (% specific binding) ([125I]-Angiotensin II; competing Hcy at log [Hcy] (M) = -2, parent: est. 34): 34; response (% specific binding) ([125I]-Angiotensin II; competing Hcy at log [Hcy] (M) = -4, parent: est. 45): 66; response (% specific binding) ([125I]-Angiotensin II; competing Hcy at log [Hcy] (M) = -6, parent: est. 98): 100"
0.628 Δ net BRET,0.629 Δ net BRET,0.626 Δ net BRET,0.622 Δ net BRET,"AT1-YFP (wild type), P30556 R167A (protein) MILNSSTEDGIKRIQDDCPKAGRHNYIFVMIPTLYSIIFVVGIFGNSLVVIVIYFYMKLKTVASVFLLNLALADLCFLLTLPLWAVYTAMEYRWPFGNYLCKIASASVSFNLYASVFLLTCLSIDRYLAIVHPMKSRLRRTMLVAKVTCIIIWLLAGLASLPAIIHANVFFIENTNITVCAFHYESQNSTLPIGLGLTKNILGFLFPFLIILTSYTLIWKALKKAYEIQKNKPRNDDIFKIIMAIVLFFFFSWIPHQIFTFLDVLIQLGIIRDCRIADIVDTAMPITICIAYFNNCLNPLFYGFLGKKFKRYFLQLLKYIPPKAKSHSNLSTKMSTLSYRPSDNVSSSTKKPAPCFEVE",–
0.621 Δ net BRET,0.618 Δ net BRET,0.619 Δ net BRET,0.618 Δ net BRET,"AT1-YFP (wild type), P30556 R167K (protein) MILNSSTEDGIKRIQDDCPKAGRHNYIFVMIPTLYSIIFVVGIFGNSLVVIVIYFYMKLKTVASVFLLNLALADLCFLLTLPLWAVYTAMEYRWPFGNYLCKIASASVSFNLYASVFLLTCLSIDRYLAIVHPMKSRLRRTMLVAKVTCIIIWLLAGLASLPAIIHKNVFFIENTNITVCAFHYESQNSTLPIGLGLTKNILGFLFPFLIILTSYTLIWKALKKAYEIQKNKPRNDDIFKIIMAIVLFFFFSWIPHQIFTFLDVLIQLGIIRDCRIADIVDTAMPITICIAYFNNCLNPLFYGFLGKKFKRYFLQLLKYIPPKAKSHSNLSTKMSTLSYRPSDNVSSSTKKPAPCFEVE",–
–,–,–,–,"human angiotensin II type 1 (AT1) receptor, P30556 C289S (protein) MILNSSTEDGIKRIQDDCPKAGRHNYIFVMIPTLYSIIFVVGIFGNSLVVIVIYFYMKLKTVASVFLLNLALADLCFLLTLPLWAVYTAMEYRWPFGNYLCKIASASVSFNLYASVFLLTCLSIDRYLAIVHPMKSRLRRTMLVAKVTCIIIWLLAGLASLPAIIHRNVFFIENTNITVCAFHYESQNSTLPIGLGLTKNILGFLFPFLIILTSYTLIWKALKKAYEIQKNKPRNDDIFKIIMAIVLFFFFSWIPHQIFTFLDVLIQLGIIRDCRIADIVDTAMPITISIAYFNNCLNPLFYGFLGKKFKRYFLQLLKYIPPKAKSHSNLSTKMSTLSYRPSDNVSSSTKKPAPCFEVE","response (% specific binding) ([125I]-Angiotensin II; competing Hcy at log [Hcy] (M) = -2, parent: est. 33): 31; response (% specific binding) ([125I]-Angiotensin II; competing Hcy at log [Hcy] (M) = -4, parent: est. 46): 76; response (% specific binding) ([125I]-Angiotensin II; competing Hcy at log [Hcy] (M) = -6, parent: est. 97): 100"
